Measurements: patent US20100169995A1 (RESEARCH FOUNDATION OF STATE UNIVERSITY OF NEW YORK, published 2010)

B1: E-cadherin (mouse, endogenous, liver lysate) (other, UniProt P09803 157-884, looked up)
chain: DWVIPPISCPENEKGEFPKNLVQIKSNRDKETKVFYSITGQGADKPPVGVFIIERETGWLKVTQPLDREAIAKYILYSHAVSSNGEAVEDPMEIVITVTDQNDNRPEFTQEVFEGSVAEGAVPGTSVMKVSATDADDDVNTYNAAIAYTIVSQDPELPHKNMFTVNRDTGVISVLTSGLDRESYPTYTLVVQAADLQGEGLSTTAKAVITVKDINDNAPVFNPSTYQGQVPENEVNARIATLKVTDDDAPNTPAWKAVYTVVNDPDQQFVVVTDPTTNDGILKTAKGLDFEAKQQYILHVRVENEEPFEGSLVPSTATVTVDVVDVNEAPIFMPAERRVEVPEDFGVGQEITSYTAREPDTFMDQKITYRIWRDTANWLEINPETGAIFTRAEMDREDAEHVKNSTYVALIIATDDGSPIATGTGTLLLVLLDVNDNAPIPEPRNMQFCQRNPQPHIITILDPDLPPNTSPFTAELTHGASVNWTIEYNDAAQESLILQPRKDLEIGEYKIHLKLADNQNKDQVTTLDVHVCDCEGTVNNCMKAGIVAAGLQVPAILGILGGILALLILILLLLLFLRRRTVVKEPLLPPDDDTRDNVYYYDEEGGGEEDQDFDLSQLHRGLDARPEVTRNDVAPTLMSVPQYRPRPANPDEIGNFIDENLKAADSDPTAPPYDSLLVFDYEGSGSEAASLSSLNSSESDQDQDYDYLNEWGNRFKKLADMYGGGEDD
B2: IQGAP2 (mouse, endogenous, liver lysate) (other, UniProt Q3UQ44 1-1575, looked up)
chain: MPHEELPSLQRPRYGSIVDDERLSAEEMDERRRQNIAYEYLCHLEEAKRWMEVCLVEELPPTTELEEGLRNGVYLAKLAKFFAPKMVSEKKIYDVEQTRYKKSGLHFRHTDNTVQWLRAMEAIGLPKIFYPETTDVYDRKNIPRMIYCIHALSLYLFKLGIAPQIQDLLGKVDFTEEEISNMRKELEKYGIQMPAFSKIGGILANELSVDEAALHAAVIAINEAIEKGVAKQTIITLRNPNAVLTCVDDSLSQEYQKELWEAKKKKEESAKLKNSCISEEERDAYEELLTQAEIQSNISTVNRMAAVDHINAVLQEGDPENTLLALKKPEAQLPAVYPFAAVMYQNELFNLQKQNTSNYLAHEELLIAVEMLSAVALLNQALESSDLVAVQNQLRSPTIGFNNLDEAHVDRYADALLSVKQEALSQGQDTLSWNEIQNCIDMINNQIQEENDRMVVLGYINEAIDAGNPLKTLDTLLLPTANIRDVDPDCAQHYQDVLFYTKSQKLGDPKNVSKVLWLDEIQQAINEANVDENRAKQWVTLVVDVNECLDRKQSDHILTALKSSPSNIHNILPECANKYYDTLVKAKESKTDNESSEGSWVTLNVQEKYNYYYNTDSKEGSWVPPELCLSKESWLTGEEIEDIVEEVTSDYIREKLWSASEDLLVRFEATTLGPALREEFEARKAFLYEQTESVVKIQAFWKGFKQRQEYLHRQQVFAGNVDSVVKIQSWFRMVTARKSYLSRLRYFEDHKNEIVKIQSLLRASKARDDYKALVGSENPPLTVIRKFVYLLDQSDLDFQEELEVARLREEVVTKIRANQQLEKDLNLMDIKIGLLVKNRITLEDVISHRKKLNKKKGGEIEILNNTDNKGIKSLSKERRKTLETYQQLFYLLQTKPSYLAKLIFQMPQNKSTKFMDTVIFTLYNYASNQREEYLLLKLFKTALEEEIKSKVDQVQDIVTGNPTVIKMVVSFNRGARGQNTLRQLLAPVVKEIIEDKALVINTNPVEVYKAWVNQLETQTGEASKLPYDVTTEQALTYPEVKNKLEASIENLRKVTDKVLGSIISSLDLLPYGLRYIAKVLKNSIREKFPDATEEELLKIVGNLLYYRYMNPAIVAPDGFDIIDMTAGGQINSNQRRNLGSVAKVLQHAASNKLFEGENEHLSSMNNYLSETYQEFRKYFQEACDVPEPEEKFNMDKYTDLVTVSKPVIYISIEEIINTHLLLLEHQDAIATEKSDLLNELLESLGEVPTVESFLGEGAVDPNDPNKENTLNQLSKTEISLSLTSKYDVKDGEAVDGRSLMIKTKKLIIDVTRNQPGSTLTEILETPATGQQELEHAKDMESRAVVDSRTPEEGKQSQAVIEDARLPLEQKKRKIQRNLRTLEQTGHVSSKNKYQDILNEIAKDIRNQRIHRKLRKAELSKLQQTLNALNKKAAFYEDQINYYDTYIKTCVDNLKRKNSRRSIKLDGKAEPKGTKRVKPVRYTAAKLHDKGVLLGIDDLQTNQFKNVMFDIIATEDMGIFDVRSKFLGVEMEKVQLNIQDLLQMQYEGVAVMKMFDKVKVNVNLLIYLLNKKFYGK
B3: human IQGAP2 (cDNA, transiently expressed in COS1 cells) (other, UniProt Q13576 1-1575, looked up)
chain: MPHEELPSLQRPRYGSIVDDERLSAEEMDERRRQNIAYEYLCHLEEAKRWMEVCLVEELPPTTELEEGLRNGVYLAKLAKFFAPKMVSEKKIYDVEQTRYKKSGLHFRHTDNTVQWLRAMESIGLPKIFYPETTDVYDRKNIPRMIYCIHALSLYLFKLGIAPQIQDLLGKVDFTEEEISNMRKELEKYGIQMPSFSKIGGILANELSVDEAALHAAVIAINEAVEKGIAEQTVVTLRNPNAVLTLVDDNLAPEYQKELWDAKKKKEENARLKNSCISEEERDAYEELLTQAEIQGNINKVNRQAAVDHINAVIPEGDPENTLLALKKPEAQLPAVYPFAAAMYQNELFNLQKQNTMNYLAHEELLIAVEMLSAVALLNQALESNDLVSVQNQLRSPAIGLNNLDKAYVERYANTLLSVKLEVLSQGQDNLSWNEIQNCIDMVNAQIQEENDRVVAVGYINEAIDEGNPLRTLETLLLPTANISDVDPAHAQHYQDVLYHAKSQKLGDSESVSKVLWLDEIQQAVDDANVDKDRAKQWVTLVVDVNQCLEGKKSSDILSVLKSSTSNANDIIPECADKYYDALVKAKELKSERVSSDGSWLKLNLHKKYDYYYNTDSKESSWVTPESCLYKESWLTGKEIEDIIEEVTVGYIRENIWSASEELLLRFQATSSGPILREEFEARKSFLHEQEENVVKIQAFWKGYKQRKEYMHRRQTFIDNTDSIVKIQSWFRMATARKSYLSRLQYFRDHNNEIVKIQSLLRANKARDDYKTLVGSENPPLTVIRKFVYLLDQSDLDFQEELEVARLREEVVTKIRANQQLEKDLNLMDIKIGLLVKNRITLEDVISHSKKLNKKKGGEMEILNNTDNQGIKSLSKERRKTLETYQQLFYLLQTNPLYLAKLIFQMPQNKSTKFMDTVIFTLYNYASNQREEYLLLKLFKTALEEEIKSKVDQVQDIVTGNPTVIKMVVSFNRGARGQNTLRQLLAPVVKEIIDDKSLIINTNPVEVYKAWVNQLETQTGEASKLPYDVTTEQALTYPEVKNKLEASIENLRRVTDKVLNSIISSLDLLPYGLRYIAKVLKNSIHEKFPDATEDELLKIVGNLLYYRYMNPAIVAPDGFDIIDMTAGGQINSDQRRNLGSVAKVLQHAASNKLFEGENEHLSSMNNYLSETYQEFRKYFKEACNVPEPEEKFNMDKYTDLVTVSKPVIYISIEEIISTHSLLLEHQDAIAPEKNDLLSELLGSLGEVPTVESFLGEGAVDPNDPNKANTLSQLSKTEISLVLTSKYDIEDGEAIDSRSLMIKTKKLIIDVIRNQPGNTLTEILETPATAQQEVDHATDMVSRAMIDSRTPEEMKHSQSMIEDAQLPLEQKKRKIQRNLRTLEQTGHVSSENKYQDILNEIAKDIRNQRIYRKLRKAELAKLQQTLNALNKKAAFYEEQINYYDTYIKTCLDNLKRKNTRRSIKLDGKGEPKGAKRAKPVKYTAAKLHEKGVLLDIDDLQTNQFKNVTFDIIATEDVGIFDVRSKFLGVEMEKVQLNIQDLLQMQYEGVAVMKMFDKVKVNVNLLIYLLNKKFYGK

Assays:
[1] = target: B2; experiment: co-immunoprecipitation from mouse whole-liver lysates, immunoblot detection
Description: (§1) To further probe the relationships between IQGAP1, IQGAP2, β-catenin, and E-cadherin, a series of immunoprecipitation experiments were conducted using whole-liver lysates from Iqgap1^{-/-}, Iqgap2^{-/-}, and wildtype mice. […] In contrast, there was no evidence for specific interaction between E-cadherin and IQGAP2 in either E-cadherin- or IQGAP2-specific immunoprecipitations. […] Using normal hepatocytes, however, neither IQGAP1- nor IQGAP2-specific pull-down assays coprecipitated the corresponding homologous protein. Transient transfections of […] (which endogenously express IQGAP1) were subsequently used as an in vitro model system to specifically address the existence of putative IQGAP1-IQGAP2 heterodimers. As evident in FIG. 15B, IQGAP1 or IQGAP2 were not pulled down by reciprocal immunoprecipitations. Thus, while IQGAP1 and IQGAP2 are normally found as components of a broader quarternary scaffolding complex in hepatocytes, there appears to be no evidence that their presence within this scaffold occurs via direct (heterodimeric) interactions.
(§2) Immunoprecipitation experiments were completed using freshly isolated murine livers essentially as described previously (Schmidt, V. A., et al. 2003. Blood 101:3021-3028). In brief, intact livers were homogenized in 25 mM HEPES-0.15 M NaCl buffer, pH 7.45, supplemented with 0.1% Triton X-100 and standard protease inhibitors. […]

[2] = target: IQGAP1 (mouse, endogenous, liver lysate) (mouse, UniProt Q9JKF1 2-1657); experiment: reciprocal co-immunoprecipitation from normal mouse hepatocyte/liver lysates, immunoblot detection
Description: as §1, §2

[3] = target: human IQGAP1 (full-length cDNA, transiently expressed in COS1 cells) (human, UniProt P46940 2-1657); experiment: reciprocal co-immunoprecipitation from lysates of transiently transfected COS1 cells, immunoblot detection
Description: as §1, §2

Sequence of IQGAP1 (mouse, endogenous, liver lysate) (Q9JKF1 2-1657 limits assumed): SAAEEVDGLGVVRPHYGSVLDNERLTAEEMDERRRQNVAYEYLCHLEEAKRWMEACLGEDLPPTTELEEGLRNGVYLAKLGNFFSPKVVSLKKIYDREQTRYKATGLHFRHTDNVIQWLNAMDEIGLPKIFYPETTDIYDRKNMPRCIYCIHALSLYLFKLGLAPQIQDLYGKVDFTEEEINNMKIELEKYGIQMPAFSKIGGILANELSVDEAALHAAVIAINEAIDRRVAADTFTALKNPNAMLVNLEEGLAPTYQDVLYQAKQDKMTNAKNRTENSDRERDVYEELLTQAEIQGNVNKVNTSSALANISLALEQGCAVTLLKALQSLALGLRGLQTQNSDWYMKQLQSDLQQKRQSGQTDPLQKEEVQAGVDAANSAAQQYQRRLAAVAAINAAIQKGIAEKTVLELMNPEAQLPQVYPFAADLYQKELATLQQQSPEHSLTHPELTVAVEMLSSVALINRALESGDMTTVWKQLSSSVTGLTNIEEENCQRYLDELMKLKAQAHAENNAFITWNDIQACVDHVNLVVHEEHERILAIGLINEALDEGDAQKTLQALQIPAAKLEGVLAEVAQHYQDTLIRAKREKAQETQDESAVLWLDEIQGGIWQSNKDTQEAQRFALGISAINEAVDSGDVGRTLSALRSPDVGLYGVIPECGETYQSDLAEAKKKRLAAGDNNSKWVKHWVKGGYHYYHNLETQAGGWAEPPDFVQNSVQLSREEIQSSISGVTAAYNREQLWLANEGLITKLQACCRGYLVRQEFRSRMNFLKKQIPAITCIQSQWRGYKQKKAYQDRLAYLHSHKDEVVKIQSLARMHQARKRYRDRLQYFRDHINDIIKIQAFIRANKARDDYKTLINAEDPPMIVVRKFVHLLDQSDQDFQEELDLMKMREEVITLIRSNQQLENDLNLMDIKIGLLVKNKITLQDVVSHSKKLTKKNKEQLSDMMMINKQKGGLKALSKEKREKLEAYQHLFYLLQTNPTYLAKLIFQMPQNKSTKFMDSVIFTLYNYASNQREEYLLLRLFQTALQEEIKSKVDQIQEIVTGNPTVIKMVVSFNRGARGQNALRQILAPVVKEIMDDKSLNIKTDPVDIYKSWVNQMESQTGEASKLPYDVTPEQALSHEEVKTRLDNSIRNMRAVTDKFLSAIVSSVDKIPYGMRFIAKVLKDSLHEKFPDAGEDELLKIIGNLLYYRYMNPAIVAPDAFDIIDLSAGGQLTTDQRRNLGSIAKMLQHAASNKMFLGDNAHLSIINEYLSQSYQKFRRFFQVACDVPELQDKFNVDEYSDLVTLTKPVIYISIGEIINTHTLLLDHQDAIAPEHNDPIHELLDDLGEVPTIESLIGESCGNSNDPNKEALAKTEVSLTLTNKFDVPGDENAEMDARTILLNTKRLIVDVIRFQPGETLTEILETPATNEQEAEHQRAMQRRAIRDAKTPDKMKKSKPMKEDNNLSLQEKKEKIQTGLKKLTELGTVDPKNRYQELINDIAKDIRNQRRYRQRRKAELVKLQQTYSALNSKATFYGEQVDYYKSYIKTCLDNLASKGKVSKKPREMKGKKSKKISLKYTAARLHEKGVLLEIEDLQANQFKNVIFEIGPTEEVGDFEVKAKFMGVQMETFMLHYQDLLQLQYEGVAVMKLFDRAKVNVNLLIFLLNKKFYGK
Sequence of human IQGAP1 (full-length cDNA, transiently expressed in COS1 cells) (P46940 2-1657 limits assumed): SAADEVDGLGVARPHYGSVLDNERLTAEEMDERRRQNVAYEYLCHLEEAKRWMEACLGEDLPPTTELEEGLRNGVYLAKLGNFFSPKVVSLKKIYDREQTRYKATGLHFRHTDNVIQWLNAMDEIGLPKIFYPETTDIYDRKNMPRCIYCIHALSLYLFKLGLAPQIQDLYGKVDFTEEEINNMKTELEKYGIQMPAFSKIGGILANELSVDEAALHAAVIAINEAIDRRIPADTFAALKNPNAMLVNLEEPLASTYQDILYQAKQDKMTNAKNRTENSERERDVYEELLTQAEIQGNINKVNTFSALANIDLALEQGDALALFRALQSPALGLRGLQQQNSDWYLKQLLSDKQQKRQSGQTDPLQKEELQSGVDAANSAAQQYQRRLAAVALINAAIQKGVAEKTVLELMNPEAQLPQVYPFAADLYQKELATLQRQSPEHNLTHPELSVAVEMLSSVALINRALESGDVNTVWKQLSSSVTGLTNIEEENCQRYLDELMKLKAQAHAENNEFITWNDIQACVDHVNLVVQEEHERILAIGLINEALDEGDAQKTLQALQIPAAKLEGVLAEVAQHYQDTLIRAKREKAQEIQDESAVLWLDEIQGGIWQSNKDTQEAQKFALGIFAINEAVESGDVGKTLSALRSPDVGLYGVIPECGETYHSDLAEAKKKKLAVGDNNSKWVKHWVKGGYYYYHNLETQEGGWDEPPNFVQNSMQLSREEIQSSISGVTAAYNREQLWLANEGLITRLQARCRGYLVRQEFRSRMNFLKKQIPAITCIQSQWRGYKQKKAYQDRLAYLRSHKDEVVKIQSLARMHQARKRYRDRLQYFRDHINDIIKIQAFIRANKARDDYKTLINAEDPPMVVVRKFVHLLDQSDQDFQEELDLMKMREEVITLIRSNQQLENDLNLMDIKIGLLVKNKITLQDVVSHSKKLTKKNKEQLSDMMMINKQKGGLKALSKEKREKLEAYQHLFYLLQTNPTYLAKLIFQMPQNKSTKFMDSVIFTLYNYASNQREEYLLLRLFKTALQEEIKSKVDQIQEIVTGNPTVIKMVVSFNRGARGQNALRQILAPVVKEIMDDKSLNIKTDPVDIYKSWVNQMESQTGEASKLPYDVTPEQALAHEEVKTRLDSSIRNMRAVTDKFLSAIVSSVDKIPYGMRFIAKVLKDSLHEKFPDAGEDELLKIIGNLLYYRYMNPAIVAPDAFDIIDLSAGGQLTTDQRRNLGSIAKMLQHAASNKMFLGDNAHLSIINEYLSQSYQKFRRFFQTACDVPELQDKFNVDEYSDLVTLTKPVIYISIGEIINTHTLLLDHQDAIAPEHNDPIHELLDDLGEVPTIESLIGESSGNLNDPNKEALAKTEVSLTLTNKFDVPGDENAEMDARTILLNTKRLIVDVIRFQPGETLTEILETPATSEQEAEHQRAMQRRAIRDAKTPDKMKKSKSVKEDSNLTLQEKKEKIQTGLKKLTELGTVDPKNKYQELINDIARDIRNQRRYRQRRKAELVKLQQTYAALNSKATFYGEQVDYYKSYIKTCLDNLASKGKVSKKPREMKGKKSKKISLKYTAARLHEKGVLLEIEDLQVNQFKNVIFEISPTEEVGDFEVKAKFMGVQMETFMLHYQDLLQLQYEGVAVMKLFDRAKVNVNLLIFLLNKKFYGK

Binder: B1
binding result [1]: no binding

Binder: B2
binding result [2]: no binding

Binder: B3
binding result [3]: no binding
